One molecule from PMC11485255, “Structure of a fully assembled γδ T cell antigen receptor” (Nature, 2024) can be followed below.

Experiment [1] addresses T1, CD3-ε, full length, GFP2-fused (human, UniProt P07766).
T1 construct: CD3-ε, full length; source: CHO-S, lentiviral transduction, co-expressed with the other subunits; purified as the complex from LMNG-solubilised membranes (Strep-Tactin XT, SEC in GDN)
Put plainly: cryo-EM structure; subunits co-expressed in CHO-S and purified as one complex in detergent; tenfold molar excess of UCHT1 Fab added before a final SEC in 10 mM HEPES pH 7.4, 150 mM NaCl, 0.02% GDN; 3.01 Å consensus map and 3.39 Å TM-focused map. To be noted: both partners purified.

The next experiment concerns the target T2, CD3ε on Jurkat T cells (human (endogenous in Jurkat), UniProt P07766).
T2 construct: CD3-ε as part of the TCR–CD3 complex at the cell surface; source: endogenous, on Jurkat T cells (TCR transductants)
Put plainly: flow cytometry on cells; cells pre-incubated with increasing concentrations of UCHT1 Fab, then stained with fluorescent UCHT1 antibody. Particulars: one partner purified. For orientation: A flow cytometer gives signals particle by particle.

T1 sequence (P07766 23-207): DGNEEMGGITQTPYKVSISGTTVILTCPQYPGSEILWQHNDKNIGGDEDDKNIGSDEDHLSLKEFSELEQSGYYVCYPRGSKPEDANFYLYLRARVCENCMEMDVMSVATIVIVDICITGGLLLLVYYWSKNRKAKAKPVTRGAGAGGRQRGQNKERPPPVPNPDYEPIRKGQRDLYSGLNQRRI
T2 sequence (P07766 23-207): as above

B1: Fab fragment of the anti-human CD3ε murine antibody UCHT1 (Fab, V domains shown)
VH: EVQLQQSGPELVKPGASMKISCKASGYSFTGYTMNWVKQSHGKNLEWMGLINPYKGVSTYNQKFKDKATLTVDKSSSTAYMELLSLTSEDSAVYYCARSGYYGDSDWYFDVWGQGTTLTVFS
VL: DIQMTQTTSSLSASLGDRVTISCRASQDIRNYLNWYQQKPDGTVKLLIYYTSRLHSGVPSKFSGSGSGTDYSLTISNLEQEDIATYFCQQGNTLPWTFAGGTKLEIK
notes: VH domain of UCHT1; C-γ1 domain of murine IgG1, residues 1-103 of P01868-1; Vκ domain of UCHT1; murine constant kappa domain; Both chains were expressed under a modified cPTPRσ signal peptide ([residues removed], last two residues changed for a KpnI site); also called UCHT1 Fab; source: CHO-K1, lentiviral transduction, purified from culture supernatant (CaptureSelect C-tagXL, Superdex 200)
For B1, the binding result (in experiment [1]; in the experiment with CD3ε on Jurkat T cells) was “binds” in each case.
